Target: 6His-NS5 RdRp(270-900) of DENV-2 NGC strain (DENV-2 NGC strain)
Assay: ELISA
Details: both partners purified

## EGEWKEGEEVQVLAL [NS3(86-100) peptide of DENV-2]
  IC50: > 200 µM

Source: PMC12615485, “New dengue virus inhibitors targeting NS3-NS5 interaction identified by in silico screening” (Frontiers in Microbiology, 2025)
